Numbering of substitutions follows the chain as printed. “And” between values parts separate entries of the source, which are not always exact repeats. Equal entries are not always repeated. Blank lines part the entries; values can stand above or below the binder they belong to.
Key:
[1] = biological target: ErbB3 on rat Schwann cells (rat) (UniProt Q62799); assay: cell-based or functional assay
[2] = biological target: ErbB4 on neonatal rat cardiomyocytes (rat) (UniProt Q62956); assay: cell-based or functional assay
Chain of ErbB4 on neonatal rat cardiomyocytes (rat) (Q62956 26-1308): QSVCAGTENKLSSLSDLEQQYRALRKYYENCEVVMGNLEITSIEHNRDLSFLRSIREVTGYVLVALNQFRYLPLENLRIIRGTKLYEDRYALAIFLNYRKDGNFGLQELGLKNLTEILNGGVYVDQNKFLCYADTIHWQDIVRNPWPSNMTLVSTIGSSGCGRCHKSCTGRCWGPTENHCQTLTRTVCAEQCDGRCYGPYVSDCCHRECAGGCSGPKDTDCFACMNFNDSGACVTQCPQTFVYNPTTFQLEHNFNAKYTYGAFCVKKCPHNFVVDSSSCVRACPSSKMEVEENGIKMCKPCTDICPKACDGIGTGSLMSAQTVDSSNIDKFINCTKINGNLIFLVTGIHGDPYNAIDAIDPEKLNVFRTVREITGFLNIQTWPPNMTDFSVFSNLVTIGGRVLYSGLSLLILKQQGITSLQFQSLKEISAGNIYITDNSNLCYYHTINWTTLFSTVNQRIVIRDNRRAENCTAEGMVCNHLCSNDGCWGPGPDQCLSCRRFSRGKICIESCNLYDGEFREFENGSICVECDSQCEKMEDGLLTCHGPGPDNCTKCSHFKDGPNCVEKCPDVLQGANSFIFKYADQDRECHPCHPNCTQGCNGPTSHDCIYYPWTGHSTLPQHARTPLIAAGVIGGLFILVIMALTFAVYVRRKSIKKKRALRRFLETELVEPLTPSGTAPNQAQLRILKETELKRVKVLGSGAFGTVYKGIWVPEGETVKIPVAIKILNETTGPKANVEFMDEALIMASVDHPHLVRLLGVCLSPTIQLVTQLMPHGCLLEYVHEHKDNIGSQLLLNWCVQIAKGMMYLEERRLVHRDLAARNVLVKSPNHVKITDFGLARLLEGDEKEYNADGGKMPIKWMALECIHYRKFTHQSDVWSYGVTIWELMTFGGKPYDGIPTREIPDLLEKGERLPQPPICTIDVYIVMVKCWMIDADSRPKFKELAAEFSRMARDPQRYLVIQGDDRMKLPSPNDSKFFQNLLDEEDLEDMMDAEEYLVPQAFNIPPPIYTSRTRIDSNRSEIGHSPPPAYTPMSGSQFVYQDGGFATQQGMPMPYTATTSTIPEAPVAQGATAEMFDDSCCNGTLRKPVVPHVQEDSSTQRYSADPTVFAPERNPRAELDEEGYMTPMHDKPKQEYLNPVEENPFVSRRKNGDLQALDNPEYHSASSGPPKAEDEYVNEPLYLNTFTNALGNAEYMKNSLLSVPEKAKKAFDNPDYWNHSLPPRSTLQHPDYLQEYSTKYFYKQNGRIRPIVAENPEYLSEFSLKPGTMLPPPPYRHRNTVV

Chain of ErbB3 on rat Schwann cells (rat) (Q62799 20-1339): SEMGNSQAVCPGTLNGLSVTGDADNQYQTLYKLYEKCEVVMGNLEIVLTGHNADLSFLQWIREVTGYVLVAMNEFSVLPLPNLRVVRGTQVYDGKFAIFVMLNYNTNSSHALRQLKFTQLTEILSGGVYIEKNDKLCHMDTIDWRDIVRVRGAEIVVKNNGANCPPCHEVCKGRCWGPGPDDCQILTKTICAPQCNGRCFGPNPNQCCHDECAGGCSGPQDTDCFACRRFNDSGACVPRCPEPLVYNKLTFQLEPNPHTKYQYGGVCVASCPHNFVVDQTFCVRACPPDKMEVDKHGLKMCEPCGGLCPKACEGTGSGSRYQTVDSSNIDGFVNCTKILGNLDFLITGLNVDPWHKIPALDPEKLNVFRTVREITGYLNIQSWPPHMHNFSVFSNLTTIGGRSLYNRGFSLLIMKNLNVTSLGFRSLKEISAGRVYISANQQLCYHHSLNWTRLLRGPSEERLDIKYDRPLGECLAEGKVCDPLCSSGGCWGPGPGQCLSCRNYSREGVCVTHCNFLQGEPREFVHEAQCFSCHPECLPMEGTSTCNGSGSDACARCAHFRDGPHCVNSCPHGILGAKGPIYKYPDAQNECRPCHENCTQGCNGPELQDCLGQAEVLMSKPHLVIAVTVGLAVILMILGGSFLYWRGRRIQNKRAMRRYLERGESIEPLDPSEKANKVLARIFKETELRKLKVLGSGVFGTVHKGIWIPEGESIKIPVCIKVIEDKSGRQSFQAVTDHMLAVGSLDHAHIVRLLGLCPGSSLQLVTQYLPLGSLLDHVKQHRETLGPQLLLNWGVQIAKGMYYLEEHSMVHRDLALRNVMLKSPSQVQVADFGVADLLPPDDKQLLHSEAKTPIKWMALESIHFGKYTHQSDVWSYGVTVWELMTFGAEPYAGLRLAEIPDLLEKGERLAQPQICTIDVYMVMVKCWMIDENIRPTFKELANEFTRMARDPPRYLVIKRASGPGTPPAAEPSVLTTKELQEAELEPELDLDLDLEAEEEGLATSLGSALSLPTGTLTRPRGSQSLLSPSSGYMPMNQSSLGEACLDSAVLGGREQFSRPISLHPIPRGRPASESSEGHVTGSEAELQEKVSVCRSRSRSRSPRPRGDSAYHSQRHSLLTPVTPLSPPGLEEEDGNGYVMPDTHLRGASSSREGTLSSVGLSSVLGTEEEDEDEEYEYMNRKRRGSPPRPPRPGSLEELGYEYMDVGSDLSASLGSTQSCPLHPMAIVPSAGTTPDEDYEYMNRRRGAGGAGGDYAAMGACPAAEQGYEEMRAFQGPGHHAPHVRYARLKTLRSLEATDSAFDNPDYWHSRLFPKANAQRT

B1: huNRG1(S177-Q237)(NRGE1D)::GG::huFcSEFL2 (Pb) (Fc fusion)
chain: SHLVKCGESHKSFCVNGGECYMVEGSSIPSRYLCKCPNEFTGDRCQEDFMASFYKAEELYQGGDKTHTCPPCPAPELLGGPSVFLFPPKPKDTLMISRTPEVTCVVVDVSHEDPEVKFNWYVDGVEVHNAKTKPCEEQYGSTYRCVSVLTVLHQDWLNGKEYKCKVSNKALPAPIEKTISKAKGQPREPQVYTLPPSREEMTKNQVSLTCLVKGFYPSDIAVEWESNGQPENNYKTTPPVLDSDGSFFLYSKLTVDKSRWQQGNVFSCSVMHEALHNHYTQKSLSLSPGK
Schwann cells (SC) (ErbB3) Avg EC50 [1]: > 10000 nM
CM % Agonism AVG [2]: 83%
Cardiomyocyte (CM) (ErbB4) Avg EC50 [2]: 0.303 nM and 0.33 nM
Selectivity SC/CM [2]: > 10000

B3: huNRG1(S177-Q237)(NRGE1K)::GG::huFcSEFL2 (Pb) (Fc fusion)
chain: B1 chain with G7A, S9K, Y21F, V23I, S26P, I28N, E47D
Schwann cells (SC) (ErbB3) Avg EC50 [1]: > 10000 nM
CM % Agonism AVG [2]: 66%
Cardiomyocyte (CM) (ErbB4) Avg EC50 [2]: 7.54 nM
Selectivity SC/CM [2]: 1320

B5: huNRG1(S177-Q237)(NRGE1J)::GG::huFcSEFL2 (Pb) (Fc fusion)
chain: B1 chain with S9N, H10D, E47D
Schwann cells (SC) (ErbB3) Avg EC50 [1]: > 10000 nM
CM % Agonism AVG [2]: 68%
Cardiomyocyte (CM) (ErbB4) Avg EC50 [2]: 14.1 nM
Selectivity SC/CM [2]: 710

B6: huNRG1(S177-Q237)(NRGE1C)::GG::huFcSEFL2 (Pb) (Fc fusion)
chain: B1 chain with S9K, Y21F, V23I, S26P, I28N
Schwann cells (SC) (ErbB3) Avg EC50 [1]: > 10000 nM
CM % Agonism AVG [2]: 82%
Cardiomyocyte (CM) (ErbB4) Avg EC50 [2]: 0.476 nM and 0.41 nM
Selectivity SC/CM [2]: > 10000

B7: huNRG1(S177-Q237)(NRGE1N)::GG::huFcSEFL2 (Pb) (Fc fusion)
chain: B1 chain with S9N, H10D, E47D, D48F
Schwann cells (SC) (ErbB3) Avg EC50 [1]: 751 nM
CM % Agonism AVG [2]: 26%
Cardiomyocyte (CM) (ErbB4) Avg EC50 [2]: 1.73 nM
Selectivity SC/CM [2]: 435

B8: huNRG1(S177-Q237)(NRGE1F)::GG::huFcSEFL2 (Pb) (Fc fusion)
chain: B1 chain with G7A, S9N, H10D, E47N
Schwann cells (SC) (ErbB3) Avg EC50 [1]: > 10000 nM
CM % Agonism AVG [2]: 90%
Cardiomyocyte (CM) (ErbB4) Avg EC50 [2]: 0.65 nM
Selectivity SC/CM [2]: > 10000

B10: huNRG1(S177-Q237)(NRGE1M)::GG::huFcSEFL2 (Pb) (Fc fusion)
chain: B1 chain with S9N, H10D, Y21F, V23I, S26P, I28N, E47D, D48F
Schwann cells (SC) (ErbB3) Avg EC50 [1]: 1010 nM
CM % Agonism AVG [2]: 30%
Cardiomyocyte (CM) (ErbB4) Avg EC50 [2]: 25.6 nM
Selectivity SC/CM [2]: 39

B15: huNRG1(S177-Q237)(1D4)::GG::huFcSEFL2 (Pb) (Fc fusion)
chain: B1 chain with S9R, H10D, S12T, M22V, G25H, I28N, E47K, D48F, M50L
Cardiomyocyte (CM) (ErbB4) Avg EC50 [2]: 0.924 nM and 0.576 nM

Further lines, results first:

Schwann cells (SC) (ErbB3) Avg EC50 [1]: > 10000 nM
CM % Agonism AVG [2]: 74%
Cardiomyocyte (CM) (ErbB4) Avg EC50 [2]: 2.29 nM
Selectivity SC/CM [2]: > 4370
B2: huNRG1(S177-Q237)(NRGE1L)::GG::huFcSEFL2 (Pb) (Fc fusion)
chain: B1 chain with E47D

Schwann cells (SC) (ErbB3) Avg EC50 [1]: > 10000 nM
CM % Agonism AVG [2]: 83%
Cardiomyocyte (CM) (ErbB4) Avg EC50 [2]: 0.995 nM
Selectivity SC/CM [2]: > 10000
B4: huNRG1(S177-Q237)(NRGE1E)::GG::huFcSEFL2 (Pb) (Fc fusion)
chain: B1 chain with S9N, H10D, Y21F, V23I, S26P, I28N, E47N

Schwann cells (SC) (ErbB3) Avg EC50 [1]: > 10000 nM
CM % Agonism AVG [2]: 88%
Cardiomyocyte (CM) (ErbB4) Avg EC50 [2]: 0.286 nM
Selectivity SC/CM [2]: > 10000
B9: huNRG1(S177-Q237)(NRGE1H)::GG::huFcSEFL2 (Pb) (Fc fusion)
chain: B1 chain with Y21F, V23I, S26P, I28N, E47N

Schwann cells (SC) (ErbB3) Avg EC50 [1]: 546 nM
CM % Agonism AVG [2]: 27%
Cardiomyocyte (CM) (ErbB4) Avg EC50 [2]: 1.04 nM
Selectivity SC/CM [2]: 526
B11: huNRG1(S177-Q237)(NRGE1O)::GG::huFcSEFL2 (Pb) (Fc fusion)
chain: B1 chain with S9K, E47D, D48F

Schwann cells (SC) (ErbB3) Avg EC50 [1]: > 10000 nM
CM % Agonism AVG [2]: 67%
Cardiomyocyte (CM) (ErbB4) Avg EC50 [2]: 22.9 nM
Selectivity SC/CM [2]: 437
B12: huNRG1(S177-Q237)(NRGE1I)::GG::huFcSEFL2 (Pb) (Fc fusion)
chain: B1 chain with S9N, H10D, Y21F, V23I, S26P, I28N, E47D

Schwann cells (SC) (ErbB3) Avg EC50 [1]: > 10000 nM
CM % Agonism AVG [2]: 76%
Cardiomyocyte (CM) (ErbB4) Avg EC50 [2]: 1.48 nM
Selectivity SC/CM [2]: > 6700
B13: huNRG1(S177-Q237)(NRGE1B)::GG::huFcSEFL2 (Pb) (Fc fusion)
chain: B1 chain with S9N, H10D

Schwann cells (SC) (ErbB3) Avg EC50 [1]: > 10000 nM
CM % Agonism AVG [2]: 84%
Cardiomyocyte (CM) (ErbB4) Avg EC50 [2]: 0.218 nM
Selectivity SC/CM [2]: > 10000
B14: huNRG1(S177-Q237)(NRGE1G)::GG::huFcSEFL2 (Pb) (Fc fusion)
chain: B1 chain with S9K, E47N
